Data from paper PMC9027083.

What follows are substances tested against recombinant MBP-EDIII of DENV2 (Dengue virus 2 (strain Thailand/16681/84)) (assay: SPR).
1A1D-2 Fab A54E.H gave a Kd of 41.9 nM, a koff of 0.00822 s⁻¹ and a kon of 197000 M⁻¹ s⁻¹. 1A1D-2 Fab Y105R.H showed a Kd of 203 nM, a koff of 0.0195 s⁻¹ and a kon of 96200 M⁻¹ s⁻¹. For 1A1D-2 Fab A54E-Y105R double mutant, the Kd was 12.3 nM, the koff was 0.00274 s⁻¹ and the kon was 222000 M⁻¹ s⁻¹.
